According to the supplement of paper PMC10065799, “High-throughput profiling of sequence recognition by tyrosine kinases and SH2 domains using bacterial peptide display” (eLife, 2023):

Key:
SHP2-C SH2 = assay: SH2 binding enrichment of the phosphorylated peptide, bacterial display (enrichment ratio); higher = better substrate or ligand; peptides without Tyr show the background
c-Src SH2 = assay: as above
Grb2 SH2 = Grb2 SH2 (UniProt P62993); assay: as above
Fer (mouse) = assay: phosphorylation enrichment, bacterial display (enrichment ratio); higher = better substrate or ligand; peptides without Tyr show the background
MERTK = MERTK (UniProt Q12866); assay: as above
Hck = Hck (UniProt P08631); assay: as above
Fes = Fes (UniProt P07332); assay: as above
Jak2 = Jak2 (UniProt O60674); assay: as above
AncSZ = assay: as above
EPHB1 = EPHB1 (UniProt P54762); assay: as above
FGFR1 = FGFR1 (UniProt P11362); assay: as above
Fyn = Fyn (UniProt P06241); assay: as above
c-Abl (mouse) = assay: as above
FGFR3 = FGFR3 (UniProt P22607); assay: as above
EPHB2 = EPHB2 (UniProt P29323); assay: as above
c-Src = assay: as above
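For SH2 binding enrichment of the phosphorylated peptide, bacterial display in this document: peptide library displayed on the E. coli surface as eCPX fusions, selected cells deep-sequenced, score is each peptide's frequency after selection divided by its frequency in the input.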
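For phosphorylation enrichment, bacterial display in this document: 11-residue human phosphosite peptides and single-mutation variants displayed on the E. coli surface, counted by deep sequencing, each peptide's frequency after selection divided by its frequency in the unselected input library; frequency after pTyr selection over input frequency; kinase dosed for 20-30% of maximal phosphorylation in three min.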

Sequence of Hck (P08631 whole entry, looked up): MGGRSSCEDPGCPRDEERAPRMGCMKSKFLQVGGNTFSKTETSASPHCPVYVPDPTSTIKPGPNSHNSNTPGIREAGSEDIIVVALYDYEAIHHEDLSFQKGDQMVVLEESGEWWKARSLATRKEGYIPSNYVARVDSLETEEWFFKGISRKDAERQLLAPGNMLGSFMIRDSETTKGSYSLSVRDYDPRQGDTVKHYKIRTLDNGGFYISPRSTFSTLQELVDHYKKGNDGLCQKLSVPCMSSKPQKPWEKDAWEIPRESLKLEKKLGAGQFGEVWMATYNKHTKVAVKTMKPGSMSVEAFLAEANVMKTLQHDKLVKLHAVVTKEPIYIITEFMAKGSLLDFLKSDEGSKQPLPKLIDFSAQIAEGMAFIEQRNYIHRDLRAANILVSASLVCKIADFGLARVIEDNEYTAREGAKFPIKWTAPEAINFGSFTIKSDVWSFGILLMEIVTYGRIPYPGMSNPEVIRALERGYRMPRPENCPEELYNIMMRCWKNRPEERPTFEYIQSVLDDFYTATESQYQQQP
Sequence of MERTK (Q12866 whole entry, looked up): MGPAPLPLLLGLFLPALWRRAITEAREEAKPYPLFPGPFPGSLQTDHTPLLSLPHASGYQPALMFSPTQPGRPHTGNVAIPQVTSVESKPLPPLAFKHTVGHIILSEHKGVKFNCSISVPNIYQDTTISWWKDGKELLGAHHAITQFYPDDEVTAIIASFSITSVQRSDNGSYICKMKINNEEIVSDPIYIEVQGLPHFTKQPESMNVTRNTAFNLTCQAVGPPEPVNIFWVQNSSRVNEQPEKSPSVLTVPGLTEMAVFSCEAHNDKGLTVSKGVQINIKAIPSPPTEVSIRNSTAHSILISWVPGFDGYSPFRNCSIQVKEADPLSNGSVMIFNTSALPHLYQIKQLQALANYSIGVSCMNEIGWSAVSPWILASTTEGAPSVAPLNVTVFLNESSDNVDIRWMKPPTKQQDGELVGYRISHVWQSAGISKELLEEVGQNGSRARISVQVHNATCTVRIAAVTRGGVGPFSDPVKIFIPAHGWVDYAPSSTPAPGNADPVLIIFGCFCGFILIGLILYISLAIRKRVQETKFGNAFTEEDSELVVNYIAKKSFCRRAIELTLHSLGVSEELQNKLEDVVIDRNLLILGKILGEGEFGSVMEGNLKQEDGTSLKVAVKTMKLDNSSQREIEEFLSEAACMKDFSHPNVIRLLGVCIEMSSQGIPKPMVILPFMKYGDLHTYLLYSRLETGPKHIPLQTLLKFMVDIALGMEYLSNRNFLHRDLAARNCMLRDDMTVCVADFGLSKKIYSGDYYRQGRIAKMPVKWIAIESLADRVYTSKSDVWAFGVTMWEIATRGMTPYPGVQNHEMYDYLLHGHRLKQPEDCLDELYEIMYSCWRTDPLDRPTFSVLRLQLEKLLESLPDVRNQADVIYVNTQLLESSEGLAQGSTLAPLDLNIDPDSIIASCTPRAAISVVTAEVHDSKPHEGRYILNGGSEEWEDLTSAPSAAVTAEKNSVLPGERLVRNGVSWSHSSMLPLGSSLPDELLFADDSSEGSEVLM
Sequence of EPHB1 (P54762 whole entry, looked up): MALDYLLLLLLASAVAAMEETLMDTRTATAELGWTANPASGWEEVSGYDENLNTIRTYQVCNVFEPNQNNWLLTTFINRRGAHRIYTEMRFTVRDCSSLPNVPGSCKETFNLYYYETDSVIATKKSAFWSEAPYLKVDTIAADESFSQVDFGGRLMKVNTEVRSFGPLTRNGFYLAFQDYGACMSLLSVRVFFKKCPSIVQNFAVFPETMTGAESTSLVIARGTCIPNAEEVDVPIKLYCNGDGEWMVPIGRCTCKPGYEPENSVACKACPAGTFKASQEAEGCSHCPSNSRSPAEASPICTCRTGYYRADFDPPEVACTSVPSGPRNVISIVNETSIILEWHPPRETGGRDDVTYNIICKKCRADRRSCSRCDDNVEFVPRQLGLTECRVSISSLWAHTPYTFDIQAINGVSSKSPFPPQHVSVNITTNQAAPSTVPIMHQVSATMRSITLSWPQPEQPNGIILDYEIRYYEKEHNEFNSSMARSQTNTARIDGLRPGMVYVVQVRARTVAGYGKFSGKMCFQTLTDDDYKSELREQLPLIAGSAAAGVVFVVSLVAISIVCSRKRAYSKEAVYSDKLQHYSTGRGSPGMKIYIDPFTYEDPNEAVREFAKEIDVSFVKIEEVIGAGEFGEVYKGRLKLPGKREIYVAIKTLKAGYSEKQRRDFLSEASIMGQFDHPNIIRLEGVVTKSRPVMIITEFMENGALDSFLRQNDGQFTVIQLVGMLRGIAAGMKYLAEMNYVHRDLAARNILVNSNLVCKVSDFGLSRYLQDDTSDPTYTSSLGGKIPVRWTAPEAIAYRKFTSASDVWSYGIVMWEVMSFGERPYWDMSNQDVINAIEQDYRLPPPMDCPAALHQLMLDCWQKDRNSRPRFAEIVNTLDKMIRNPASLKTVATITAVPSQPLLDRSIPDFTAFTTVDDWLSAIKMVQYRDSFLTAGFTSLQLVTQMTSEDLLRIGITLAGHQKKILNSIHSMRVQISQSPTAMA
Sequence of Fyn (P06241 whole entry, looked up): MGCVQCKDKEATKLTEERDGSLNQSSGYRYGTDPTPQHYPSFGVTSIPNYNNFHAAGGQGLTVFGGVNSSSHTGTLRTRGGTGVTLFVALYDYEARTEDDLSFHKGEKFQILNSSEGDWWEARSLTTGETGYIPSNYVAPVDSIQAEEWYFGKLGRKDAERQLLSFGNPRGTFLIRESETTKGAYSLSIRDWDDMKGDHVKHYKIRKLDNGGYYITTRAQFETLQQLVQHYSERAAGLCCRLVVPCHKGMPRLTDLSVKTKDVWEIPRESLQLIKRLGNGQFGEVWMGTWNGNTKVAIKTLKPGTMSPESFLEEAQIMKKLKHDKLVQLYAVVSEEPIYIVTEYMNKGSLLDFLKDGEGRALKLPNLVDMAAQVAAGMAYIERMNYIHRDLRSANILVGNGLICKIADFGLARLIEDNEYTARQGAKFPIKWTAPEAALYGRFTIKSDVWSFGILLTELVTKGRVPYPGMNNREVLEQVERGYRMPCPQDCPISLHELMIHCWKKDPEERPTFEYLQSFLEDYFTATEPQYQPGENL
Sequence of Jak2 (O60674 whole entry, looked up): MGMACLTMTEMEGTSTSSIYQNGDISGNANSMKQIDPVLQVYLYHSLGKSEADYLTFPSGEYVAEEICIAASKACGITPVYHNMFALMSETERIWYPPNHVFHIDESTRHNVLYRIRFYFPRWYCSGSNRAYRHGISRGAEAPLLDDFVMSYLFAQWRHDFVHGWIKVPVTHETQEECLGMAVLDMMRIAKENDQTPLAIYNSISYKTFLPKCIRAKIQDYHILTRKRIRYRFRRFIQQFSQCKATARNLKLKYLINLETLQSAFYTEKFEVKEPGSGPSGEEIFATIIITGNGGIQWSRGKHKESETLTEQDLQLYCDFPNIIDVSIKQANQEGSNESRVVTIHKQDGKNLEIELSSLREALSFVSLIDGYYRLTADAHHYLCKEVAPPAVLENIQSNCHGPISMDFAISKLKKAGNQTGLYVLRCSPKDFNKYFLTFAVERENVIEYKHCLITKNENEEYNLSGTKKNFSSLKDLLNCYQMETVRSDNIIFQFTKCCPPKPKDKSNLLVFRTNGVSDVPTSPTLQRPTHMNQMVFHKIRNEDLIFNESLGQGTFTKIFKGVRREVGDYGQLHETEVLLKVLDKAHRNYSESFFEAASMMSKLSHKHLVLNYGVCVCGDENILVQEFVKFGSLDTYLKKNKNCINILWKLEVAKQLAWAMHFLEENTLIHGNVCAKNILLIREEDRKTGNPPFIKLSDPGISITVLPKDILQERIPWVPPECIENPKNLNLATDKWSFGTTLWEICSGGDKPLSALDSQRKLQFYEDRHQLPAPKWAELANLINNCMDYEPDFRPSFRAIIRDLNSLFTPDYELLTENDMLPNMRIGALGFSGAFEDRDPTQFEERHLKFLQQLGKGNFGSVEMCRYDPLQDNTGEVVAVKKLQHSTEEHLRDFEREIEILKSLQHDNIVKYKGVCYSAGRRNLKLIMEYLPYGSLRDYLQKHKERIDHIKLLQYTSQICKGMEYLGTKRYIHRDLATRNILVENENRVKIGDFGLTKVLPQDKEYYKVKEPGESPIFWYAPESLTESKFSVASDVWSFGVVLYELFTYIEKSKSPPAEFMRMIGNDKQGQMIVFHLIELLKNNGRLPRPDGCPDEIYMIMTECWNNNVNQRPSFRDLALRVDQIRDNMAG
Sequence of FGFR3 (P22607 whole entry, looked up): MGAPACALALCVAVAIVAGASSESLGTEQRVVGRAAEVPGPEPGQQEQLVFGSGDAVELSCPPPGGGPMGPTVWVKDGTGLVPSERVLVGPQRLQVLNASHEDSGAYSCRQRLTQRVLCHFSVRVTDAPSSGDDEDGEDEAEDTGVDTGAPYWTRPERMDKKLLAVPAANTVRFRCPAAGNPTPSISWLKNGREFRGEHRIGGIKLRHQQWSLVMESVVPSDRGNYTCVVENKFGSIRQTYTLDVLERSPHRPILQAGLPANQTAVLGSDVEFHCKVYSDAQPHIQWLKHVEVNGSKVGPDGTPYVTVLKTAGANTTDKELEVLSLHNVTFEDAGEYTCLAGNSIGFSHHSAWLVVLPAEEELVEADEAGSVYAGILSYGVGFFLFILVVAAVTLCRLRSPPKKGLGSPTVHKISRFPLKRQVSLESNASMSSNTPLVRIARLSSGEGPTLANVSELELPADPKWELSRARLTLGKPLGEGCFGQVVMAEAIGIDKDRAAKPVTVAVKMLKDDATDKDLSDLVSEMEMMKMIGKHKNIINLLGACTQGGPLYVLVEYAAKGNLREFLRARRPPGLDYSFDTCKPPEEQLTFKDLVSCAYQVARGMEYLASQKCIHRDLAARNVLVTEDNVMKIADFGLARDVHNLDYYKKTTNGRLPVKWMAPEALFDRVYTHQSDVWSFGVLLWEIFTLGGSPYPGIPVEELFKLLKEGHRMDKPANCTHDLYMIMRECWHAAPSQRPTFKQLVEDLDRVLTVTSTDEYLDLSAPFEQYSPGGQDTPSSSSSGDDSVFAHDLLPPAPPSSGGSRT

Sequence | SH2 binding enrichment (SHP2-C SH2) | SH2 binding enrichment (c-Src SH2) | SH2 binding enrichment (Grb2 SH2) | phosphorylation enrichment (Fer (mouse)) | phosphorylation enrichment (MERTK) | phosphorylation enrichment (Hck) | phosphorylation enrichment (Fes) | phosphorylation enrichment (Jak2) | phosphorylation enrichment (AncSZ) | phosphorylation enrichment (EPHB1) | phosphorylation enrichment (FGFR1) | phosphorylation enrichment (Fyn) | phosphorylation enrichment (c-Abl (mouse)) | phosphorylation enrichment (FGFR3) | phosphorylation enrichment (EPHB2) | phosphorylation enrichment (c-Src)
PLQKTYNHNVL [SLC4A1_Y553_Y555H] | 0.607 | 0.659 | 0.908 | 0.659 | 0.744 | 0.291 | 0.946 | 0.892 | 0.657 | 0.576 | 0.479 | 0.531 | 0.833 | 0.524 | 0.591 | 0.686
PLQSEYSSIST [ITGB4_Y1760_T1764S] | 0.826 | 1.17 | 0.844 | 1.08 | 0.582 | 1.93 | 1.28 | 0.822 | 2.59 | 1.81 | 0.944 | 1.27 | 1.49 | 0.925 | 2.28 | 1.3
PMFTKYGNSLL [RPGRIP1L_Y196] | 0.679 | 0.749 | 0.952 | 1.44 | 0.708 | 0.636 | 1.73 | 1.44 | 1.45 | 1.07 | 0.645 | 0.558 | 1.49 | 0.912 | 0.643 | 0.951
PRSRSYSSTSI [REPS2_Y462] | 0.423 | 0.388 | 0.893 | 0.57 | 1 | 0.468 | 1.71 | 1.2 | 1.11 | 0.538 | 0.743 | 1.06 | 0.932 | 0.611 | 0.523 | 1.33

Further lines, with some results ahead:

SH2 binding enrichment (SHP2-C SH2) | SH2 binding enrichment (c-Src SH2) | SH2 binding enrichment (Grb2 SH2) | Sequence | phosphorylation enrichment (Fer (mouse)) | phosphorylation enrichment (MERTK) | phosphorylation enrichment (Hck) | phosphorylation enrichment (Fes) | phosphorylation enrichment (Jak2) | phosphorylation enrichment (AncSZ) | phosphorylation enrichment (EPHB1) | phosphorylation enrichment (FGFR1) | phosphorylation enrichment (Fyn) | phosphorylation enrichment (c-Abl (mouse)) | phosphorylation enrichment (FGFR3) | phosphorylation enrichment (EPHB2) | phosphorylation enrichment (c-Src)
0.684 | 0.272 | 0.768 | PNATLYKMTSI [SERPINA7_Y40_S43T] | 0.477 | 0.918 | 0.636 | 1.5 | 1.16 | 0.883 | 0.642 | 0.86 | 0.604 | 1.3 | 0.668 | 1.02 | 1.04
0.811 | 2 | 0.899 | PNEAVYTKMMT [G6PD_Y401] | 6.07 | 1.48 | 1.96 | 0.972 | 0.838 | 1 | 0.506 | 0.555 | 2.31 | 0.674 | 0.571 | 0.479 | 4.58
0.935 | 0.503 | 0.823 | PNRILYGDFQQ [MYH7_Y715_R719Q] | 0.375 | 0.408 | 1.42 | 0.798 | 0.861 | 0.601 | 0.504 | 0.422 | 4.31 | 0.549 | 0.475 | 0.516 | 3.04
13 | 0.644 | 1.05 | PQGVSYIYTID [DCX_Y103_R102S] | 0.728 | 3.15 | 5.22 | 1.79 | 1.55 | 1.62 | 0.985 | 1.06 | 10.6 | 1.32 | 1.64 | 0.856 | 6.93
